Assay results: patent US7422862B2, “Methods for identifying modulators of apoptosis” (The Burnham Institute, priority 2001, dated 2008)
No end group written: not given here.

Assays:
[1] = biological target: Bcl-XL (Homo sapiens, UniProt Q07817); experiment: Fluorescence polarization assay, Bcl-XL specificity control; assay type: binding
Procedure: The binding of Humanin to Bax was further investigated using an in vitro binding assay. In this example, the in vitro binding assay is a fluorescence polarization assay (FPA). For this experiment, full-length Bax protein was produced in bacteria and purified. Various concentrations of Bax protein were incubated with 40 nM of rhodamine-conjugated synthetic purified Humanin peptide. The extent of peptide binding was then monitored by measuring polarization of monochromatic light passed through the sample, where peptide binding to the bulkier protein slows the rate of peptide tumbling in solution, enhancing the polarization effect.
(§2) Fluorescence Polarization Assays were performed as follows. Recombinant Bax protein was isolated from E. coli BL21 harboring pTYB1-Bax essentially as described (Suzuki et al., Cell 103:645-654 (2000)). For fluorescence polarization assays (FPA), various concentrations of Bax protein were incubated with 40 nM of rhodamine-conjugated synthetic purified Humanin peptide dissolved in water for 30 minutes in dark. Fluorescence polarization was measured using an AnalystTM AD Assay Detection System (LJL Biosystem, Sunnyvale, Calif.).

[2] = tested on: Bax; experiment: Bax-induced lethality in yeast; assay type: cell-based, S. cerevisiae; settings: TAD-fusion polypeptide, galactose-induced Bax
[3] = biological target: T1, GFP-Bax (Homo sapiens, UniProt Q07812); experiment: STS-induced GFP-Bax translocation to mitochondria in Cos7 cells (confocal microscopy); assay type: cell-based; settings: peptide transduced with Chariot, 1 μM STS
T1 construct: expressed in transfected cells; host or cells: Cos-7
T1 sequence (Q07812 whole entry): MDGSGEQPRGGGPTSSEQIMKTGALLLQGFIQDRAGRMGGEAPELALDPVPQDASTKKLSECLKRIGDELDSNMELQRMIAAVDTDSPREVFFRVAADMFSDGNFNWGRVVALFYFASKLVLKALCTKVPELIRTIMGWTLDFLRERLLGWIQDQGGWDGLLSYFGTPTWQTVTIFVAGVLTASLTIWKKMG
Procedure: (§1) (A-B) Humanin peptide prevents STS-induced Bax translocation in vivo. Cos-7 cells were first transfected with GFP-Bax plasmids. After 24 hrs, untagged wild-type or C8P mutant Humanin peptides were introduced into cells using ChariotTM reagent, and 2 h later cells were treated with 1 μM STS. After 4 h, the percentage of cells with translocated Bax was determined (mean±SD; n=3) by confocal microscopy (A) and representative photomicrographs (B). (C) Wild-type or C8P mutant Humanin peptides were introduced into Cos7 cells using ChariotTM reagent. Cytosolic (C) and mitochondria-containing (M) fractions were isolated by differential centrifugation 23 and analyzed by immunoblotting using anti-Bax (top), Hsp60 (middle) (mitochondrial marker), or Tubulin (bottom) (cytosol marker) antibodies. (D) HN or mutant control double-strand siRNAs were transfected into SF268 cells. After 48 h, cells were cultured without (Control) or with 0.1 uM STS. After 24 hr, cells were fractionated and analyzed by immunoblotting as above. (E) Isolated mitochondria were mixed with 400 ng Bax protein, with or without preincubating Bax with 100 uM Humanin or Humanin(C8P) peptides for 10 min. After 3 h at 30° C., mitochondria were centrifuged and the resulting pellets (P) and supernatants (S) were analyzed by immunoblotting using anti-Cytochrome c (top), Hsp60 (middle), and Bax (bottom) antibodies. […]

[4] = tested on: endogenous Bax protein; experiment: Subcellular fractionation and immunoblot of endogenous Bax after STS; assay type: cell-based; settings: Cos7 cells, untagged peptides, STS
Procedure: as §1, with “(E) Isolated mitochondria were mixed with 400 ng Bax protein, with or without preincubating Bax with 100 uM Humanin or Humanin(C8P) peptides for 10 min.” left out
These findings were also confirmed by subcellular fractionation, where cytosol and mitochondria-enriched heavy membrane preparations were prepared from Cos7 cells transduced with untagged Humanin or Humanin(C8P) peptides, and the relative amounts of endogenous Bax protein in these two fractions were measured by immunoblot analysis of samples normalized for cell-equivalents. […] Differences in the relative potency of Humanin at blocking Bax translocation as measured by microscopy (FIG. 7A) versus cell fractionation methods (FIG. 7C) can be explained by differences in the sensitivity of the assays, or could possibly indicate that even in cells where some Bax translocation has occurred, less of the total Bax protein associated with mitochondria. […]

[5] = biological target: T2, purified recombinant Bax (Homo sapiens, UniProt Q07812); experiment: Isolated mitochondria: Bax association and cytochrome c release assay; assay type: biochemical; settings: 100 μM peptide preincubated with Bax, HCT116 mitochondria
T2 sequence (Q07812 whole entry): as above
Procedure: (A-B) Humanin peptide prevents STS-induced Bax translocation in vivo. Cos-7 cells were first transfected with GFP-Bax plasmids. After 24 hrs, untagged wild-type or C8P mutant Humanin peptides were introduced into cells using ChariotTM reagent, and 2 h later cells were treated with 1 μM STS. After 4 h, the percentage of cells with translocated Bax was determined (mean±SD; n=3) by confocal microscopy (A) and representative photomicrographs (B). (C) Wild-type or C8P mutant Humanin peptides were introduced into Cos7 cells using ChariotTM reagent. Cytosolic (C) and mitochondria-containing (M) fractions were isolated by differential centrifugation 23 and analyzed by immunoblotting using anti-Bax (top), Hsp60 (middle) (mitochondrial marker), or Tubulin (bottom) (cytosol marker) antibodies. (D) HN or mutant control double-strand siRNAs were transfected into SF268 cells. After 48 h, cells were cultured without (Control) or with 0.1 uM STS. After 24 hr, cells were fractionated and analyzed by immunoblotting as above. (E) Isolated mitochondria were mixed with 400 ng Bax protein, with or without preincubating Bax with 100 uM Humanin or Humanin(C8P) peptides for 10 min. After 3 h at 30° C., mitochondria were centrifuged and the resulting pellets (P) and supernatants (S) were analyzed by immunoblotting using anti-Cytochrome c (top), Hsp60 (middle), and Bax (bottom) antibodies. (F) HN peptide enforces the interaction of Bax TM domain with Bax.TM. Lysates from HEK293T cells expressing Flag-Bax.TM were pretreated with or without Humanin or Humanin(C8P) peptides. Lysates were then mixed in vitro with lysates of HEK293T cells expressing GFP-TM(Bax). Immunoprecipitations were performed with anti-Flag antibody, analyzing lysates and immunoprecipitates (IP) by immunoblotting using monoclonal anti-GFP antibody.
To determine whether Humanin can act directly on Bax, the effects of Humanin on isolated mitochondria were tested. Addition of recombinant purified Bax protein to mitochondria in vitro induces cytochrome c release (Jurgensmeier et al., Proc. Natl. Acad. Sci. USA 95:4997-5002 (1998)). […] Therefore Humanin can directly suppress Bax targeting to mitochondria, without requirement for intact cells.
Cytochrome c release assays were performed as follows. Mitochondria were isolated from HCT116 cells by differential centrifugation as described above. Purified recombinant human Bax protein (400 ng for each sample) was pre-incubated with or without 100 μM synthetic Humanin peptide or mutant Humanin (C8P) peptide for 10 min at 4° C. The untreated or peptide pre-treated Baxprotein samples were then mixed with equal amount of HCT116 mitochondria (in a volume of 40 μl) at 30° C. for 3 hours. […]

[6] = biological target: T3, BaxΔTM (Homo sapiens, UniProt Q07812); experiment: Co-immunoprecipitation of BaxΔTM with GFP-TM(Bax); assay type: binding; settings: lysates pre-incubated with peptide
T3 construct: a C-terminally truncated Bax protein (residues 1-169) (BaxΔTM); expressed in transfected cells; host or cells: HEK293T (lysates mixed in vitro)
T3 sequence (Q07812 1-169, stated change not applied): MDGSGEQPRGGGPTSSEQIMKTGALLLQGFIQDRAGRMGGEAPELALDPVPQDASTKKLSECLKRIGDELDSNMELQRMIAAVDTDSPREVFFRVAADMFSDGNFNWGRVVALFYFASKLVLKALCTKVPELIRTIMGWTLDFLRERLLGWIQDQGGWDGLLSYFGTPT
T3 sequence (Q07812 170-192 partner limits assumed): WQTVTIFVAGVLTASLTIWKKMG
Procedure: as §1

[7] = biological target: T2, purified recombinant Bax; experiment: Fluorescence polarization assay (FPA) of rhodamine-labelled peptide binding to Bax; design: full-length Bax protein was produced in bacteria and purified; made in house; host or cells: E. coli BL21; settings: rhodamine-labelled control peptides
Procedure: (C) The affinity (Kd) of Bax/HN interaction was measured by fluorescence polarization assay, using various concentrations of purified recombinant Bax and 40 nM rhodamine-conjugated HN peptide. Control peptide from CD40 is also shown (mean +Std Dev; n=3).
In this example, the in vitro binding assay is a fluorescence polarization assay (FPA). For this experiment, full-length Bax protein was produced in bacteria and purified. Various concentrations of Bax protein were incubated with 40 nM of rhodamine-conjugated synthetic purified Humanin peptide. The extent of peptide binding was then monitored by measuring polarization of monochromatic light passed through the sample, where peptide binding to the bulkier protein slows the rate of peptide tumbling in solution, enhancing the polarization effect.
as §2

Sequence of Bcl-XL (Q07817 whole entry, species assumed, the tested form may be a part): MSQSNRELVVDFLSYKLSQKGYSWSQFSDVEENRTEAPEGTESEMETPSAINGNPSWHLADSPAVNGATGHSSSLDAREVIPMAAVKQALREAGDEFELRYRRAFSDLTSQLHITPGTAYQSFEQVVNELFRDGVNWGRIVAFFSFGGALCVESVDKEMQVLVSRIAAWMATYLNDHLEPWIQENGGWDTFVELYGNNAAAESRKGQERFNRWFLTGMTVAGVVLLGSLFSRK

CC[C@H](C)[C@H](NC(=O)[C@H](CCC(=O)O)NC(=O)[C@H](CO)NC(=O)[C@@H](NC(=O)[C@H](CC(C)C)NC(=O)[C@H](CC(C)C)NC(=O)[C@H](CC(C)C)NC(=O)[C@H](CC(C)C)NC(=O)[C@H](CS)NC(=O)[C@H](CO)NC(=O)[C@H](Cc1ccccc1)NC(=O)CNC(=O)[C@H](CCCNC(=N)N)NC(=O)[C@@H]1CCCN1C(=O)[C@H](C)NC(=O)[C@H](CCSC)NC(=O)CCCCCNC(=O)c1ccccc1-c1c2ccc(=[N+](CC)CC)cc-2oc2cc(N(CC)CC)ccc12)[C@@H](C)O)C(=O)N[C@@H](CC(=O)O)C(=O)N[C@@H](CC(C)C)C(=O)N1CCC[C@H]1C(=O)N[C@H](C(=O)N[C@@H](CCCCN)C(=O)N[C@@H](CCCNC(=N)N)C(=O)N[C@@H](CCCNC(=N)N)C(=O)N[C@@H](C)C(N)=O)C(C)C [rhodamine-HN]
binding to Bcl-XL in fluorescence polarization assay [1]: did not bind

Humanin(C8P): synthetic Humanin peptide (or TAD-fusion in yeast) with C8P mutation, non-Bax-binding (MAPRGFSPLLLLTSEIDLPVKRRA; UniProt Q8IVG9 1-24, looked up, variant C8P)
rescue of yeast from Bax-induced lethality [2]: did not rescue
suppression of GFP-Bax translocation [3]: not
Bax translocation by subcellular fractionation [4]: no effect
Bax association with mitochondria [5]: did not interfere
cytochrome c release [5]: did not interfere
interaction of BaxΔTM with GFP-TM [6]: did not promote

rhodamine-CD40: rhodamine-labelled control peptide from CD40 (residue 250P to 266G) (PVQETLHGCQPVTQEDG; also: rhodamine label; UniProt P25942 250-266, looked up, fragment)
interaction with Bax in fluorescence polarization assay [7]: did not display interactions
